According to the supplement of paper PMC9170038:

System: MS2 coat protein
Assay: apparent KD of MS2 coat protein; designed switch direction (-1 OFF switch, 1 ON switch): -1; higher = weaker reporter binding
Summary of the method: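 Designed RNA switches with common flanks were made on Illumina chips by stalled E. coli RNA polymerase. Titration with SNAP-549-labelled MS2 coat protein doubled from 0.7 or 1.5 nM up to 3 µM. Apparent KD is each design's median over clusters after curve-fitting normalised fluorescence.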

[1] = Eterna round: R95, input ligand: FMN 200 uM
[2] = Eterna round: R95, input ligand: microRNA oligo, concentration not stated
[3] = Eterna round: R95, input ligand: none
[4] = input ligand: microRNA oligo, concentration not stated

Sequence	apparent KD of MS2 coat protein (input ligand: FMN 200 uM) [nM]	apparent KD of MS2 coat protein (input ligand: none) [nM]	apparent KD of MS2 coat protein [1] [nM]	apparent KD of MS2 coat protein [2] [nM]	apparent KD of MS2 coat protein [3] [nM]	apparent KD of MS2 coat protein [4] [nM]
GCAUCUCAUGUCAGGAUAUGCUGUACCUUGGUACAGCAGAAGGGACAUGAGGAUCACCCAUGUGCCUAAGAUGC [JL-BMX4-4.12] (Eterna round: R97, puzzle: Brourd's mod of Exclusion 4)	1270	254	–	–	–	–
AGUGCGUAUGUGAGGAUAUGCUGGUCCUUGGAUCGGCAGAAGGCACAUGAGGAUCACCCAUGUGGUGUCGUACA [salish99_Bmod_ex4_085] (puzzle: Brourd's mod of Exclusion 4)	–	–	21.5	257	263	–
CGUUCGCGAGGAUAUGCAUUCGAGUCCAUUACGUGUCUGGGACUUGAGGAUCACCCAAGUAGAAGGCGCCUCAC [salish99_ex2_r4_647] (Eterna round: R97, puzzle: Exclusion 2)	131	153	–	–	–	–
UUUUAGGGAGGAUAUACAUUUUUUUUAUUAUCCUCAUUAUUACAUGAGGAUCACCCAUGUAGAAGGCCCAUUUU [My Design] (puzzle: Exclusion 2)	–	–	–	84	–	–
GGGCCCGGAGGAUAUACAUGAGGAUCACCCAUGUAGCGCGCGCGUAUUUGUGUGUGUUGUAGAAGGCCGGGCCC [-36.6, -33.8 kcal, A 19%, 6-0] (Eterna round: R97, puzzle: Exclusion 3)	57.9	17.9	–	–	–	–
UAUCGGGACUGAGGAUAUUCGUUCGAGCACGAAGAAGAAGGUAGUGUCAGGGACAUGAGGAUCACCCAUGUGAUCUCAGUCCCA [JL ViennaUCT Erinle mod 7] (Eterna round: R96, puzzle: Exclusion NG 1)	71.8	67	–	–	–	60.4
GAAGAGACAGGAUAUACAUGAGGAUCACCCAUGUGAGUAAGGUAGAGGCGGAGUAGAUGUAGAAGGGUCAAAGA [JR_Exclu3_Sub015] (puzzle: Exclusion 3)	–	–	80.5	40.5	42.8	–
AAACGGCAAUAAGGAUAUGCUUACCUGGGUCGUCUUCAAACAUGAGGAUCACCCAUGUAGUCGACGCAGAAGGUAUUCAAAGCC [ExNG2 first] (Eterna round: R96, puzzle: Exclusion NG 2)	13.5	12.8	–	–	–	10.4
CCUAAAUCCUAGGAUAUGCUAGACGAAAGUCUAGCAGAAGGAGGAACAUGAGGAUCACCCAUGUGUCCUAUAGG [Mat - Exclusion 6 - Eli Mod - D31] (Eterna round: R97, puzzle: Exclusion 6)	20.6	16.5	–	–	–	–
AUCAGCUCGUCAGGAUAUACAUGAGGAUCACCCAUGUGGUCAAUAGCAGCUUCGGCUGCAUACAUGUAGAAGGGACGAGCUGAU [ENG2/7-B2] (Eterna round: R96, puzzle: Exclusion NG 2)	28.4	101	–	–	–	894
ACAUCACAGCUAGGAUAUAUAUGACAUGAGGAUCACCCAUGUUGUCCCAUGUUGACGAAAACCGAAUAGAAGGAGCUACAGAUG [Ex NG2 #4] (Eterna round: R96, puzzle: Exclusion NG 2)	53.2	64.2	–	–	–	54.9
CCCGGGUUAGGAUAUGGGCCCGGGCCCGAAAGGGCCCGGGCCCAGAAGGGACAUGAGGAUCACCCAUGUCCGGG [-53.1, -49.1 kcal, 20% A] (Eterna round: R97, puzzle: Exclusion 4)	22.1	19.9	–	–	–	–
UACAAGCAAGGAUAUACAUGAGGAUCACCCAUGUCACUCCUAGCGCGGGUUUUGAAAUGUAGAAGGUGCACCUG [EX3 B.14] (Eterna round: R97, puzzle: Exclusion 3)	17.3	20.5	–	–	–	–
AGUCCGUCAGGAUAUGCAAUUGUGGACAUGAGGAUCACCCAUGUAACGUGGGCUUGGUUUGUAGAAGGGACGUGCA [EX5 #91] (Eterna round: R97, puzzle: Exclusion 5)	351	442	–	–	–	–
CAUACUCAAGUCAGGAUAUAGAGUCGGAUACGGGUCUAGAAGGGACAUGAGGAUCACCCAUGUAGAGAGUAAAG [EX-4 Malc #24] (puzzle: Brourd's mod of Exclusion 4)	–	–	62.7	30.9	30.8	–
CUUUGAUGAGGAUAUCGAGGUUAGUACAUGAGGAUCACCCAUGUUAUCCAGGUGUCGGAUCGAGAAGGUAUUGGAC [LRO-Ex5-18] (puzzle: Exclusion 5)	–	–	–	14.8	–	–

Sequence	apparent KD of MS2 coat protein (input ligand: FMN 200 uM) [nM]	apparent KD of MS2 coat protein (input ligand: none) [nM]	apparent KD of MS2 coat protein [1] [nM]	apparent KD of MS2 coat protein [2] [nM]	apparent KD of MS2 coat protein [3] [nM]	apparent KD of MS2 coat protein [4] [nM]
CUCCUCAUGGCGCCUAAACACAUGAGGAUCACCCAUGUGCAGGCUUUUUGCCGUCUUAUAAUAAAACCGAGGAUGCG [Vegequ] (puzzle: Sensor v3, turn-off variant 1)	–	–	16.9	77.8	16.2	–
UUGCUUUCUUAGUACUCUACAAGUUUUUUGUUCGUUUUAACAUGAGGAUCACCCAUGUCUAGUGGAUCUGAUCGGGU [JL ViennaUCT Isreen mod 6] (puzzle: Sensor v3, turn-off variant 2)	–	–	146	263	173	–
AGUAGAUCUACGCUUGCGUGGAUCUGCAAUGCAAGUGUUACAUGAGGAUCACCCAUGUCCUCAUUUGCUCGUCUUAU [JL turnoff v2 99.04] (puzzle: Sensor v3, turn-off variant 2)	–	–	42.2	108	40.9	–
GAAAAGUAAGGAUAUUCACACAGUGAGGAAACUCACUGUGUGGAGAAGGUACAUGAGGAUCACCCAUGUUUCUC [ExDelusion 1 - Jieux - Exclusion 4] (Eterna round: R97, puzzle: Exclusion 4)	229	30.3	–	–	–	–
GUUAUCGGAGGAUAUACAUGAGGAUCACCCAUGUGCCAGUAUGUACUAAUCCUUUAGAGUAGAAGGUCGAUAGG [Eternabot (L1) Solution 72] (Eterna round: R97, puzzle: Exclusion 3)	198	118	–	–	–	–
AUACCACGAGGAUAUCGUCUAUAAUACAUGAGGAUCACCCAUGUUAUAUCUGUAAUGUUUCGAGAAGGCGUGUUUU [JR_E5_Sub083] (puzzle: Exclusion 5)	–	–	–	16.6	–	–
AAGUAUAGAGGAUAUAGUGAGUACUACAUGAGGAUCACCCAUGUUCUUCAAAGCGUACUUCUAGAAGGCUGAUAAA [EX-5 Malc#16] (puzzle: Exclusion 5)	–	–	381	251	208	–
AAUUAAUAUCAGGAUAUGACGUGCUUCGGCACGUCAGAAGGGAUGACAUGAGGAUCACCCAUGUGAUCAAUUAA [E6/1-A1] (Eterna round: R97, puzzle: Exclusion 6)	105	28.6	–	–	–	–
AAACCUCGUGUAAGGAUAUCAAGGCUUAGCGGGUGUGAGAAGGUACAUGAGGAUCACCCAUGUCAUGAUUUACG [mod2 score 1 eternabot] (Eterna round: R97, puzzle: Brourd's mod of Exclusion 4)	798	252	–	–	–	–
CUUUUGUGAGGAUAUUAGUAGUAAAUAUAUAAAAUUACUACUGAGAAGGCACAUGAGGAUCACCCAUGUUCCUC [salish99_ex4_r3_055] (puzzle: Exclusion 4)	–	–	–	36.2	–	–
CUUUGCACGCUGCGGUCCUACAUGAGGAUCACCCAUGUGGUCUGGUGGCGUGGGUCGCCGGACUUGGCUCGUCUUGA [salish99_S_TOV1_R5_040] (Eterna round: R97, puzzle: Sensor, turn-off variant 1)	18.5	18.4	–	–	–	–
AAAUUUGGAGGAUAUUCAUUGGGAAACAUGAGGAUCACCCAUGUGAUAUAAGGGAAAUCCGGAGAAGGCUAAAUUU [-17.1, -14.1 kcal, 37% A] (Eterna round: R97, puzzle: Exclusion 5)	30.7	28.2	–	–	–	–
AACCAGCGAGGAUAUGCUUGCGCGUGUUCUGGUUAUAAUCGACUUGAGGAUCACCCAAGUAGAAGGCGCUGCCG [EX2 #52] (Eterna round: R97, puzzle: Exclusion 2)	179	64.2	–	–	–	–
AGUAGUAGUAUCCGAUCCUACAUGAGGAUCACCCAUGUAGCUAGACGUGCACGCGAUGCGCGUCAGACUACCAGAUG [salish99_TOv1_r3_042] (puzzle: Sensor v3, turn-off variant 1)	–	–	184	159	240	–
AGCUGUGGCCGAGGAUAUGACAUGAGGAUCACCCAUGUACAAGAUUAGGCCUGGUAACAGGCUCAUCAGAAGGCGGUCUCAGCA [Eli eng2 - 015] (Eterna round: R96, puzzle: Exclusion NG 2)	10	13.9	–	–	–	9.52
